± gives the uncertainty stated by the source.
Assay: self-splicing fitness, log relative to wild type (ln ratio); higher = more splicing; Tetrahymena group I intron in knt gene, E. coli kanamycin selection, DiMSum; sequences stand for … in CUCUCU…GGAGGGAAAAGUUAUCAGGCAUGCACCUGGUAGCUAGUCUUUAAACCAAUAGAUUGCAUCGGUUUAAAAGGCAAGACCGUCAAAUUGCGGGAAAGGGGUCAACAGCCGUUCAGUACCAAGUCUCAGGGGAAACUUUGAGAUGGCCUUGCAAAGGGUAUGGUAAUAAGCUGACGGACAUGGUCCUAACCACGCAGCCAAGUCCUAAGUCAACAGAUCUUCUGUUGAUAUGGAUGCAGUUCACAGACUAAAUGUCGGUCGGGGAAGAUGUAUUCUUCUCAUAAGAUAUAGUCGGACCUCUCCUUAAUGGGAGCUAGCGGAUGAAGUGAUGCAACACUGGAGCCGCUGGGAACUAAUUUGUAUGCGAAAGUAUAUUGAUUAGUUUUGGAGUACUCGUGGUCG
Method in brief: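 Colonies from six replicate transformations of E. coli BL21(DE3) were pooled and amplicon-sequenced on an Illumina HiSeq 2500. The library placed an intron with all eight P1ex-region nucleotides randomised inside the knt kanamycin-resistance gene on pET-22b(+), and cells grew overnight at 37°C or 30°C on LB agar with or without 25 μg/mL kanamycin (plus 100 μg/mL carbenicillin, 50 μM IPTG, 0.2% rhamnose). Fitness is the DiMSum error-weighted combination of wild-type-normalised replicate fold changes, kanamycin versus none.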

Sequence	self-splicing fitness (ln) (37 °C)	self-splicing fitness (ln) (30 °C)
CUGGAGCAAUAUUACGUUUU	-3.48 ± 0.42	
CUGUAGCAAUAUUACGAAUU	-2.7 ± 0.3	
CUGUAGCAAUAUUACGACGC	-2.79 ± 0.27	-2.3 ± 0.35
CUGUAGCAAUAUUACGCACU	-2.25 ± 0.31	-1.84 ± 0.37
CUGUAGCAAUAUUACGCGGU	-2.33 ± 0.24	-3.17 ± 0.23
CUGUAGCAAUAUUACGCGUC	-2.41 ± 0.45	
CUGUAGCAAUAUUACGCGUU	-2.26 ± 0.18	-4.19 ± 0.3
CUGUAGCAAUAUUACGCUCU		-3.47 ± 0.39
CUGUAGCAAUAUUACGCUGA	-3.78 ± 0.29	-1.34 ± 0.16
CUGUAGCAAUAUUACGCUGG	-0.992 ± 0.34	
CUGUAGCAAUAUUACGGAGG	-2.64 ± 0.26	-4.1 ± 0.27
CUGUAGCAAUAUUACGGAUG	-0.812 ± 0.18	-3.23 ± 0.27
CUGUAGCAAUAUUACGGUAC	-2.59 ± 0.28	
CUGUAGCAAUAUUACGGUGG	-1.49 ± 0.11	-3.05 ± 0.14
CUGUAGCAAUAUUACGUAGC	-2.93 ± 0.32	-5.54 ± 0.36
CUGUAGCAAUAUUACGUAUA	-2.67 ± 0.28	-3.03 ± 0.4
CUGUAGCAAUAUUACGUCAC		-3.21 ± 0.24
CUGUAGCAAUAUUACGUCAU	-3.14 ± 0.24	-4.07 ± 0.3
CUGUAGCAAUAUUACGUGUU	-0.79 ± 0.13	-4.29 ± 0.17
CUUAAGCAAUAUUACGAACG	0.187 ± 0.14	-0.163 ± 0.11
CUUAAGCAAUAUUACGACCU		-1.75 ± 0.39
CUUAAGCAAUAUUACGCAUU	-1.92 ± 0.17	-3.82 ± 0.2

Sequence	self-splicing fitness (ln) (37 °C)	self-splicing fitness (ln) (30 °C)
CUUAAGCAAUAUUACGCGAG	-3.57 ± 0.33	-4.13 ± 0.34
CUUAAGCAAUAUUACGCUCA	-2.01 ± 0.5	-2.78 ± 0.22
CUUAAGCAAUAUUACGCUUG	-2.78 ± 0.31	-4.19 ± 0.39
CUUAAGCAAUAUUACGCUUU	-2.26 ± 0.15	-3.13 ± 0.11
CUUAAGCAAUAUUACGGACC	-0.536 ± 0.36	
CUUAAGCAAUAUUACGGCCA		-2.95 ± 0.44
CUUAAGCAAUAUUACGGUUC	-3.1 ± 0.26	-4.11 ± 0.19
CUUAAGCAAUAUUACGUGAU	-0.627 ± 0.093	-2.63 ± 0.092
CUUAAGCAAUAUUACGUUGA	-2.78 ± 0.29	
CUUCAGCAAUAUUACGAACC	-1.18 ± 0.35	-1.67 ± 0.41
CUUCAGCAAUAUUACGAAUC	-1.06 ± 0.19	-1.04 ± 0.2
CUUCAGCAAUAUUACGACAA	-2.52 ± 0.31	-2.42 ± 0.21
CUUCAGCAAUAUUACGACGG	-0.57 ± 0.23	-2.16 ± 0.13
CUUCAGCAAUAUUACGAGCA	-2.16 ± 0.28	
CUUCAGCAAUAUUACGAUCU	-2.88 ± 0.35	-2.86 ± 0.39
CUUCAGCAAUAUUACGAUUA	-1.55 ± 0.22	-3.05 ± 0.41
CUUCAGCAAUAUUACGCCUU	-3.25 ± 0.25	-2.35 ± 0.15
CUUCAGCAAUAUUACGCGCC	-1.92 ± 0.24	-3.28 ± 0.3
CUUCAGCAAUAUUACGCGCU	-1.96 ± 0.46	
CUUCAGCAAUAUUACGCGGC	-1.01 ± 0.19	-3.24 ± 0.36
CUUCAGCAAUAUUACGCGUU	-2.7 ± 0.21	-2.33 ± 0.12

— the supplement of paper PMC7877785
